PMC9267055

How the values were obtained:
[1] = target: GPI-APs (transferred from wildtype EL cells to ManN-treated human adipocytes) (human (endogenous in K562 EL cells))
[2] = target: GPI-APs (transferred from wildtype EL cells to ManN-treated human adipocytes) (human (endogenous in K562 EL cells)); remark: listed apart in the source

With “BSA (fraction V, defatted) (from UniProt P02769 25-607) (natural protein)” the decrease in transfer of GPI-APs from wildtype EL cells to ManN-treated human adipocytes in transwell co-culture (1 week), read by SAW sensing of acceptor PM; BSA 50 mg/mL, final dilution 1:75 [1] was 35%.

B1: serum GPLD1 (enzyme)
chain: CGLSTHVEIGHRALEFLQLHNGRVNYRELLLEHQDAYQAGIVFPDCFYPSICKGGKFHDVSESTHWTPFLNASVHYIRENYPLPWEKDTEKLVAFLFGITSHMAADVSWHSLGLEQGFLRTMGAIDFHGSYSEAHSAGDFGGDVLSQFEFNFNYLARRWYVPVKDLLGIYEKLYGRKVITENVIVDCSHIQFLEMYGEMLAVSKLYPTYSTKSPFLVEQFQEYFLGGLDDMAFWSTNIYHLTSFMLENGTSDCNLPENPLFIACGGQQNHTQGSKMQKNDFHRNLTTSLTESVDRNINYTERGVFFSVNSWTPDSMSFIYKALERNIRTMFIGGSQLSQKHVSSPLASYFLSFPYARLGWAMTSADLNQDGHGDLVVGAPGYSRPGHIHIGRVYLIYGNDLGLPPVDLDLDKEAHRILEGFQPSGRFGSALAVLDFNVDGVPDLAVGAPSVGSEQLTYKGAVYVYFGSKQGGMSSSPNITISCQDIYCNLGWTLLAADVNGDSEPDLVIGSPFAPGGGKQKGIVAAFYSGPSLSDKEKLNVEAANWTVRGEEDFSWFGYSLHGVTVDNRTLLLVGSPTWKNASRLGHLLHIRDEKKSLGRVYGYFPPNGQSWFTISGDKAMGKLGTSLSSGHVLMNGTLKQVLLVGAPTYDDVSKVAFLTVTLHQGGATRMYALTSDAQPLLLSTFSGDRRFSRFGGVLHLSDLDDDGLDEIIMAAPLRIADVTSGLIGGEDGRVYVYNGKETTLGDMTGKCKSWITPCPEEKAQYVLISPEASSRFGSSLITVRSKAKNQVVIAAGRSSLGARLSGALHVYSLGSD
Work on B1 yielded a transfer of GPI-APs from wildtype EL cells to ManN-treated human adipocytes in transwell co-culture (1 week), read by SAW sensing of acceptor PM; GPLD1 100 mU/mL (% of serum inhibition) [2] of 70.
